# Measurements published in US20260275312, “CRISPR NUCLEASE POLYPEPTIDES AND GENE EDITING SYSTEMS COMPRISING SUCH” (ARBOR BIOTECHNOLOGIES, INC., published 2026).
# B1: S AAVS1-T7 RNA guide ; AAVS1-T7 target (S) (ssRNA ; dsDNA)
# RNA: GGCUAUAAUCCAUGCUGACCGUUGUAUUCGGAUGGGAGUAAAAGGUUGAGUACACCUGGAAACAAAACGACAUAAAGGUGUUCUCCCAUCUGUGUACAAAGAGCAGAUAUAUGAGUUGAUAAGUAAUAUGUUGCACGUAUGGACUUUGACAGUCUGUACCUCUGCGUGAAAGACAUAUUGCGUUAUUCAUAUAUCUGUGAGUCUGUUCUAAAUUUAAAGGUUUAGGGAA
# DNA 1: GGCTATAATCCATGCTGACC
# DNA 2: GGTCAGCATGGATTATAGCC
# Biological target: T1, Nuclease S (synthetic construct)
# T1 chain: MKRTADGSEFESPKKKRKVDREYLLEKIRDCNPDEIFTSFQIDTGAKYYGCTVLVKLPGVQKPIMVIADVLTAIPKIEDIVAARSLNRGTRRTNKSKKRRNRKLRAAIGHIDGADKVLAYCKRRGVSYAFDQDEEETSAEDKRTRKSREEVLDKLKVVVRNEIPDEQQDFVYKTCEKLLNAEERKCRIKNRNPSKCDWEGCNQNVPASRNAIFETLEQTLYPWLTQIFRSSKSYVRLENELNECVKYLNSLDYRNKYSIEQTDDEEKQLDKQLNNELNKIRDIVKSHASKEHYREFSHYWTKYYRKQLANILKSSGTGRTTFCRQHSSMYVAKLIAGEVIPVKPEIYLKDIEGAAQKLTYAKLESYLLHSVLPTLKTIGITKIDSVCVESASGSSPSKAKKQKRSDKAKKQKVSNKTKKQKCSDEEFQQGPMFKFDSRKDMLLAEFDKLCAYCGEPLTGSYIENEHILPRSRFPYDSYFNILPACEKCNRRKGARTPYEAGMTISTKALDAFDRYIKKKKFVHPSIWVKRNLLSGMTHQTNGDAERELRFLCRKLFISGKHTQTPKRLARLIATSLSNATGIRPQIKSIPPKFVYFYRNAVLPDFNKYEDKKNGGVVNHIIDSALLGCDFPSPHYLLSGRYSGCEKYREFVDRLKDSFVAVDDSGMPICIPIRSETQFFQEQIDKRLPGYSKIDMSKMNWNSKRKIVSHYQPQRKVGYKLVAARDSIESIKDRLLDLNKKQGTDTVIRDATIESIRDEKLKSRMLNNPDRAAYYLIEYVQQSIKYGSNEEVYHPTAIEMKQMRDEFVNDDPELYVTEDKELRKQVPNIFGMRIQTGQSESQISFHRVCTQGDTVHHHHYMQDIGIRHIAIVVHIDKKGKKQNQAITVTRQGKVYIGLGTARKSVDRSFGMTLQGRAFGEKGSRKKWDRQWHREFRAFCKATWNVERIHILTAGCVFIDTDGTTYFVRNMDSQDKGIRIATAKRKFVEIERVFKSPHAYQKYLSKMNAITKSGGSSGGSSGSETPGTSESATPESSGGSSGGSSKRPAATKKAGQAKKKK
# Assay: cell_activity; HEK293T; PAM AACC 3'; very low
# Details: tags: N-term SV40 NLS, XTEN linker + C-term nucleoplasmin NLS
binder,measurement,value
B1,activity,0.0048 indel ratio
